# Reference: US20220228164A1, “ENGINEERED ANTIGEN PRESENTING CELLS” (Neogene Therapeutics B.V., priority 2021, published 2022)
# System: TCR transduced Jurkat cells
# Experiment: Co-culture of TMG-expressing immortalized B cells with TCR transduced Jurkat cells, CD69 by flow cytometry (Example 5)
# Assay type: cell-based, human
# Conditions: 1:1 E:T, 20 hours co-culture
# From the text: B cells from healthy donors are isolated from PBMCs using magnetic-bead enrichment using protocols known to the skilled artisan and subsequently immortalized either by EBV infection or transduction with BCL-6/BCL-xL with methods known to the skilled artisan and as described herein (Example 10). Non-EBV immortalized B cells are either transduced with BCL-6/BCL-xL alone or co-transduced with CD40L transgene. Retroviral supernatant for B cell transduction is produced using methods known to a person skilled in the art and as described in this invention (Example 10). B cells are retrovirally transduced with different TMG constructs. The example presents different TMG designs encoding varying numbers of 25mer epitopes (1, 3, 12 or 40 epitopes) with or without LAMP1 signaling and transmembrane sequences. 96 hours after transduction, TMG-expressing B cells are enriched based on puromycin resistance using protocols described in the art and this invention (Example 10). In brief, BCL-6/BCL-xL immortalized B cells are cultured in complete B cell medium (RPMI1640 medium supplemented with 10% (v/v) Fetal Calf Serum (FCS), 1% (v/v) Penicillin/Streptomycin (P/S), 1% (v/v) Sodium Pyruvate, 1% (v/v) Non-essential amino acids, 1% (v/v) Glutamax, 50 nM 2-Mercaptoethanol) containing rh-IL-21 (50 ng/mL) and 1 ug/ml puromycin and at a density of 200,000-250,000 cells/ml for 96 hours. […]
molecule,measurement,value
CD40L transgene: hCD40L transgene expressed in BCL-6/BCL-xL immortalized B cells (protein) DNA: MIETYNQTSPRSAATGLPISMKIFMYLLTVFLITQMIGSALFAVYLHRRLDKIEDERNLHEDFVFMKTIQRCNTGERSLSLLNCEEIKSQFEGFVKDIMLNKEETKKENSFEMQKGDQNPQIAAHVISEASSKTTSVLQWAEKGYYTMSNNLVTLENGKQLTVKRQGLYYIYAQVTFCSNREASSQAPFIASLCLKSPGRFERILLRAANTHSSAKPCGQQSIHLGGVFELQPGASVFVNVTDPSQVSHGTGFTSFGLLKL,MHC-class II restricted antigen-presentation (CD69 expression by TCR transduced Jurkat cells),can enhance
